Assays:
human TF = biological target: T1, human TF (Homo sapiens, UniProt P13726); test: Biacore off-rate and kinetic binding, human TF; conditions: Table 12; 25° C., 1:1 Langmuir
T1 construct: purchased Lake Pharma
Procedure: (§1) Anti-Fc polyclonal antibodies were immobilized onto a CM4 chip (Cytiva #BR100534) using amine coupling chemistry (Human Antibody Capture Kit, Cytiva #BR100839). The immobilization steps were carried out at a flow rate of 25 μL/min in 1×HBS-EP+buffer (Cytiva #BR100669). The sensor surfaces were activated for 7 min with a mixture of N-hydroxysuccinimide (NHS, 0.05 M) and 1-ethyl-3-(3-dimethylaminopropyl)-carbodiimide (EDC, 0.2 M). The anti-Fc polyclonal antibodies were injected over all 4 flow cells at a concentration of 25 μg/mL in 10 mM sodium acetate, pH 4.5, for 7 min. Ethanolamine (1 M, pH 8.5) was injected for 7 min to block any remaining activated groups. Approximately 6,000 response units (RU) of capture antibody was immobilized on each flow cell.
(§2) Off-rate and kinetic binding experiments were performed at 25° C. using 1×HBS-EP+buffer. Antibodies were injected over the anti-Fc surface at a concentration of 3 μg/mL for 12 seconds at a flow rate of 10 μL/min on flow cells 2, 3 and 4, followed by a buffer wash for 30 seconds at the same flow rate. Single point off-rate analysis was carried out using an antigen concentration of 100 nM. […] After capturing ligand (antibody) on the anti-Fc surface, the analyte (human TF, Lake Pharma; cynomolgus TF, Sino Bio #90885-C08H; mouse TF, R&D Systems #3178-PA) was bound for 180 seconds, followed by a 420 second dissociation phase at a flow rate of 50 μL/min. Between each ligand capture and analyte binding cycle, regeneration was carried out using 2 injections of 10 mM glycine pH 2.0 for 30 seconds at 30 μL/min, followed by a 30 second buffer wash step.
(§3) The data were fit with the Biacore T200 Evaluation software, using a 1:1 Langmuir binding model. KD (affinity, nM) was determined as a ratio of the kinetic rate constants calculated from the fits of the association and dissociation phases.
(§4) Anti-Fc polyclonal antibodies were immobilized onto a CM4 chip (Cytiva #BR100534) using amine coupling chemistry (Human Antibody Capture Kit, Cytiva #BR100839). The immobilization steps were carried out at a flow rate of 25 μL/min in 1×HBS-EP+buffer (Cytiva #BR100669). The sensor surfaces were activated for 7 min with a mixture of NHS (0.05 M) and EDC (0.2 M). The Anti-Fc antibodies were injected over all 4 flow cells at a concentration of 25 ug/ml in 10 mM sodium acetate, pH 4.5, for 7 min. Ethanolamine (1 M, pH 8.5) was injected for 7 min to block any remaining activated groups. Approximately 6,000 response units (RU) of capture antibody was immobilized on each flow cell. Off-rate and kinetic binding experiments were performed at 25° C. using 1×HBS-EP+buffer. Antibodies or ADCs were injected over the anti-Fc surface at a concentration of 3 μg/mL for 12 seconds at a flow rate of 10 μL/min on flow cells 2, 3 and 4, followed by a buffer wash for 30 seconds at the same flow rate. […] After capturing ligand (antibody) on the anti-Fc surface, the analyte (human TF, Lake Pharma; cynomolgus TF, Sino Bio #90885-C08H; mouse TF, R&D Systems #3178-PA) was bound for 180 seconds, followed by a 420 second dissociation phase at a flow rate of 50 μL/min. Between each ligand capture and analyte binding cycle, regeneration was carried out using 2 injections of 10 mM Glycine pH 2.0 for 30 seconds at 30 μL/min, followed by a 30 second buffer wash step. The data was fit with the Biacore T200 Evaluation software, using a 1-1 Langmuir binding model. KD (affinity, nM) was determined as a ratio of the kinetic rate constants calculated from the fits of the association and dissociation phases.

cynomolgus TF = test: Biacore off-rate and kinetic binding, cynomolgus TF; conditions: Table 12; 25° C., 1:1 Langmuir
cynomolgus TF, sequence (as listed by the source): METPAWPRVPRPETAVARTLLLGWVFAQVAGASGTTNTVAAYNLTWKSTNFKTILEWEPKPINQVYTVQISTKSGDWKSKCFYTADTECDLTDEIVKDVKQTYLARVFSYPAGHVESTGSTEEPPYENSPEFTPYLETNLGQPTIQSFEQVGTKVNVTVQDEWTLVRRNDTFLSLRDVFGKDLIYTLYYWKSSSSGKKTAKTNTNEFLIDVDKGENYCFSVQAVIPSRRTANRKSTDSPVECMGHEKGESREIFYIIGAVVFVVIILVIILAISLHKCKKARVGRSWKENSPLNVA
Procedure: as §1, §2, §3, §4

[1] = test system: primary human keratinocytes; test: ADC cell killing on primary adult human keratinocytes (WST-8); format: cell-based; conditions: Table 30, 120 hours, read-out: Keratinocyte Killing EC50
Procedure: To evaluate the cytotoxicity effects of the ADC on the adult primary keratinocytes, a total of 2000 keratinocytes in a volume of 50 microliters were seeded in a 96-well flat bottom cell culture plate coated with keratinocyte coating matrix (Thermo Fisher Scientific) the day before the actual assay starts. ADCs were formulated at 2× starting concentration in cell culture medium and filtered through SpinX 0.22 micron cellulose acetate filtered 2 mL centrifuge tubes (Corning Costar). Filter sterilized samples were serial diluted (1:3) under sterile conditions and added onto cells in triplicates. Plates were cultured at 37° C. in a CO2 incubator for 120 hours. For cell viability measurement, 10 microliters of WST-8 reagent (VWR) were added into each well and plates were incubated at 37° C. in a CO2 incubator for 4 hours. […] Data was fitted with non-linear regression analysis, using log (inhibitor) vs. response, variable slope, 4-parameter fit equation using GraphPad Prism. Data was expressed as % relative cell viability vs. dose of free linker-warhead or ADC in nanomolar with error bars indicating the Standard Deviation (SD) of the triplicates.

[2] = test system: primary human keratinocytes; test: Cell binding on primary adult human keratinocytes (flow cytometry); conditions: Table 29, primary human keratinocytes
Procedure: Since TF is expressed in human skin, anti-TF antibody 2900-A02 and 2842-B01-Hc3/Lc2 were tested in cell binding assay on primary adult human keratinocyte cells purchased from Thermo Fisher Scientific. Keratinocytes were cultured in defined keratinocyte culture medium (EpiLife Medium, Thermo Fisher Scientific) supplemented with growth supplement S7 (S0175 from Thermo Fisher Scientific) and Penicillin/Streptomycin on plates coated with keratinocyte coating matrix (Thermo Fisher Scientific).
To evaluate antibody binding activity of the anti-TF antibodies on the adult primary keratinocytes, a total of 100,000 keratinocytes per well were incubated on ice with serial dilutions of anti-TF antibodies in FACS buffer (PBS buffer supplemented with 1% bovine serum albumin, 0.05% sodium azide) for 60 minutes. Cells were washed twice with ice-cold FACS buffer and then incubated with 5 microgram/mL Alexa 647 labeled donkey anti-human Fc antibody (Jackson ImmunoResearch, West Grove, PA) on ice for another 60 minutes. Unstained cells and cells stained with secondary antibodies alone were used as controls. Samples were then washed twice using FACS buffer and analyzed using an Attune flow cytometer (Thermo Fisher). Geometric mean fluorescence intensities were fitted using non-linear regression analysis with one site specific binding equation on GraphPad Prism.

HEK293T = test: FACS cell-binding assay on parental HEK293T cells; conditions: Table 16, parental cells
Description: HEK293T, BxPC3 cells (TF positive) and NCI-H1703 (TF negative) cells were obtained from ATCC (American Type Culture Collection) and maintained in DMEM:F12 (1:1), high glucose (Corning) supplemented with 10% heat-inactivated fetal bovine serum (ThermoScientific), 1× Penicillin/Streptomycin (Corning) and 2 mmol glutamax (Thermo Fisher Scientific). To generate cells that stably expressing human tissue factor (HEK293T-humanTF) or cynomolgus tissue factor (HEK293T-cynoTF), HEK293T cells were transfected with plasmid vectors that contain the corresponding protein sequence and stable clones were selected with puromycin.
For a fluorescence-activated cell sorting (FACS) cell-binding assay, cells were collected by Accutase and counted by the Vi-CELL Cell Viability Analyzersharvested and, then re-suspended in FACS buffer (DPBS buffer supplemented with 1% bovine serum albumin). A total of 200,000 cells in 100 μL were incubated on ice with 100 μL of anti-TF antibodies in each well of a 96-well plate. Cells were washed twice with ice-cold FACS buffer and then incubated on ice for 60 mins with 5 μg/mL Alexa 647-labeled donkey anti-human Fc antibody (Jackson ImmunoResearch). Unstained cells and cells stained with secondary antibody alone were used as controls. Cells were washed twice with FACS buffer and analyzed using a BD FACS Canto system. Geometric mean fluorescence intensities (MFI) were fitted using non-linear regression analysis with one site specific binding equation on GraphPad Prism (GraphPad Software; La Jolla, CA).

T1 sequence (P13726 33-295): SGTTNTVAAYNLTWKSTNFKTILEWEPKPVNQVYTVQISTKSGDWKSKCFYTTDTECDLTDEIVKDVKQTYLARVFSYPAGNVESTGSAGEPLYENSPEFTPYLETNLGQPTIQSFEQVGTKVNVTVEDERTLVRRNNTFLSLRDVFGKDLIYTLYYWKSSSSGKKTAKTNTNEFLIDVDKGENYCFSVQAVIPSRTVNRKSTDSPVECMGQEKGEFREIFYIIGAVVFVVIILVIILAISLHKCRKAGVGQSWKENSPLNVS

B1: 37 (antibody)
heavy: MEVQLVESGGGLVQPGGSLRLSCAASGFSISSYDMSWVRQAPGKGLEWIGIIGSNGRTYYPDSVKGRFTISRDNSKNTVTLQMNSLRAEDTAVYYCARGLYDGTGNIWGQGTLVTVSSASTKGPSVFPLAPSSKSTSGGTAALGCLVKDYFPEPVTVSWNSGALTSGVHTFPAVLQSSGLSLSSVVTVPSSSLGTQTYICNVNHKPSNTKVDKKVEPKSCDKTHTCPPCPAPELLGGPSVFLFPPKPKDTLMISRTPEVTCVVVDVSHEDPEVKFNWYVDGVEVHNAKTKPREEQYNSTYRVVSVLTVLHQDWLNGKEYKCKVSNKALPAPIEKTISKAKGQPREPQVYTLPPSREEMTKNQVSLTCLVKGFYPSDIAVEWESNGQPENNYKTTPPVLDSDGSFLYSKLTVDKSRWQQGNVFSCSVMHEALHNHYTQKSLSLSPGK
light: MELVMTQSPPTLSLSPGERVTLSCRASQSVYGNNWLSWYQQKPGQAPRLLIYGASKLATSIPARFSGSGSGTQFTLTISSLQPEDFAVYYCQGTYYSGDWYFAFGQGTKVEIKRTVAAPSVFIFPPSDEQLKSGTASVVCLLNNFYPREAKVQWKVDNALQSGNSQESVTEQDSKDSTYSLSSTLTLSKADYEKHKVYACEVTHQGLSSPVTKSFNRGEC
modifications: pAzMeF at Y180/F404; drug conjugate
Biacore human TF kinetics ka (human TF): 57200 M⁻¹ s⁻¹
Biacore human TF kinetics kd (human TF): 0.000418 s⁻¹
Biacore cynomolgus TF kinetics ka (cynomolgus TF): 72400 M⁻¹ s⁻¹
Biacore cynomolgus TF kinetics kd (cynomolgus TF): 0.00113 s⁻¹
EC50 [1]: > 100 nM
Keratinocyte Binding Bmax [2]: 151831
HEK293T Bmax (MFI) (HEK293T): 1062 MFI

Reference: patent US12540197B2, “Anti-tissue factor antibodies and antibody conjugates, compositions comprising anti-tissue factor antibodies or antibody conjugates, and methods of making and using anti-tissue factor antibodies and antibody conjugates” (SUTRO BIOPHARMA, INC., priority 2023, dated 2026)
